{
  "source": "paper PMC10484683",
  "binders": {"B1": {"name": "35-4 (dsDNA)", "DNA 1": "GTGCAGTACCACATTTAACCAGCAGGGGGCGCTAA", "DNA 2": "TTAGCGCCCCCTGCTGGTTAAATGTGGTACTGCAC"}, "B2": {"name": "19-bp (dsDNA)", "DNA 1": "TGCGCCCCCTGCTGGTCCT", "DNA 2": "AGGACCAGCAGGGGGCGCA"}, "B3": {"name": "FP oligo X:Y=A:T (dsDNA)", "DNA 1": "AGGACCAGCAGGGGACGCA", "DNA 2": "TGCGTCCCCTGCTGGTCCT"}, "B4": {"name": "23-bp (dsDNA)", "DNA 1": "GCCAGCAGGGGGCGCTAGTGAGG", "DNA 2": "CCTCACTAGCGCCCCCTGCTGGC"}},
  "key": {"CTCF ZF3-ZF11 [1]": {"molecular_target": "T1, CTCF ZF3-ZF11 (Homo sapiens, UniProt P49711 322-577)", "T1 sequence": "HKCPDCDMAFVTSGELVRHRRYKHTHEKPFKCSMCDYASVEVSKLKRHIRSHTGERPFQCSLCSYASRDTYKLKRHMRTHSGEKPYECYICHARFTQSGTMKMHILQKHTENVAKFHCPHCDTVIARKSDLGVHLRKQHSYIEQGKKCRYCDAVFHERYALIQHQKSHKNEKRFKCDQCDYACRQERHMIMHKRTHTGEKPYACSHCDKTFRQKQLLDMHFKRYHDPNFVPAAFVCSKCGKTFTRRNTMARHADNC", "assay": "X-ray crystallography"}, "CTCF ZF3-ZF11 [2]": {"molecular_target": "T1, CTCF ZF3-ZF11", "assay": "X-ray crystallography", "remark": "listed apart in the source"}, "CTCF ZF1-ZF7 [3]": {"molecular_target": "T2, CTCF ZF1-ZF7 (Homo sapiens, UniProt P49711 263-465)", "T2 sequence": "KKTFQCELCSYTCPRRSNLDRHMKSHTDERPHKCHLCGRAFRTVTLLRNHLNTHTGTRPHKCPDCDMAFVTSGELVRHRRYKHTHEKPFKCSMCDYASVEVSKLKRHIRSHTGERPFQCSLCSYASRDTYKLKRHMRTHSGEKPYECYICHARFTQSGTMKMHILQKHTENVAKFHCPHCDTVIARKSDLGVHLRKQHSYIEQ", "assay": "fluorescence polarization"}, "CTCF ZF1-ZF7 [4]": {"molecular_target": "T2, CTCF ZF1-ZF7", "assay": "X-ray crystallography"}},
  "note": "Read-outs that look alike come from different tables or passages of the source.",
  "data": [
    {"binder": "B1", "values": [
      {"measurement": "binding result", "setting": "CTCF ZF3-ZF11 [1]", "value": "binds"}
    ]},
    {"binder": "B2", "values": [
      {"measurement": "binding result", "setting": "CTCF ZF3-ZF11 [2]", "value": "binds"}
    ]},
    {"binder": "B3", "values": [
      {"measurement": "binding signal", "setting": "CTCF ZF1-ZF7 [3]", "value": "7 fold reduced affinity vs G:C"}
    ]},
    {"binder": "B4", "values": [
      {"measurement": "binding result", "setting": "CTCF ZF1-ZF7 [4]", "value": "binds"}
    ]}
  ]
}
